Where two headings read alike, the source gives them in different places.
Key:
[1] = target: T1, human CD33 extracellular domain (human, UniProt P20138 18-259); assay: SPR, Fab captured, 37C;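 for result: surface plasmon resonance with Fabs captured on anti-Fab surface, soluble monomeric CD33 as analyte at several concentrations, double-referenced 1:1 model fit, KD as koff/kon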
T1 construct: soluble monomeric ECD; also called human CD33 ECD; hCD33
Method: (§1) Kinetics and affinity of a series of Fab fragments of anti-CD33 antibodies with different CD33 variants (human CD33 ECD, cyno CD33 ECD, V-domain of human CD33, C-domain or human CD33 and selected CD33 SNPs) were assessed by surface plasmon resonance using Biacore 8K instrument (GE Healthcare). Anti-Fab antibody was immobilized on a CMS chip using standard amine coupling chemistry. CD33 FABs were captured on the anti-Fab chip at a density of ˜100 RU. Solutions containing different concentrations of soluble monomeric CD33 or its domains were injected over the captured FABs and control surfaces at 30 μl/min at 37° C. Surfaces were regenerated between cycles by quick injection of 10 mM glycine, pH 1.8. To obtain kinetic rate constants double-referenced data were fit to a 1:1 interaction model using Biacore 8K Evaluation software (GE Healthcare). The equilibrium binding constant KD was determined by the ratio of binding rate constants kd/kₐ.
(§2) Affinity of 29 Fab fragments binding to human and cyno CD33 ECD were assayed by Biacore analysis.

[2] = target: T1, human CD33 extracellular domain; assay: SPR, Fab captured, 37C; remark: listed apart in the source;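 for result: surface plasmon resonance with Fabs captured on anti-Fab surface, soluble monomeric CD33 as analyte at several concentrations, double-referenced 1:1 model fit, KD as koff/kon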
Method: as §1, §2

[3] = target: T2, deglycosylated V domain of human CD33 (human, UniProt P20138 18-139, limits assumed, N-glycans removed by PNGase); assay: SPR, Fab captured, 37C
T2 construct: V domain deglycosylated by PNGase before testing; also called deglycosylated V CD33

V domain of human CD33 [4] = target: T3, V domain of human CD33 (human, UniProt P20138 18-139, limits assumed); assay: SPR, Fab captured, 37C
T3 construct: recombinant, fully glycosylated V domain; also called Human CD33 V domain

C domain of human CD33 = target: T4, C domain of human CD33 (human, UniProt P20138 140-259, limits assumed); assay: SPR, Fab captured, 37C
T4 construct: recombinant C domain
Method: as §1
The binding interface between the Fab fragment of each CD33 antibody to CD33 was mapped.

[5] = target: T1, human CD33 extracellular domain; assay: SPR, Fab captured, 37C; remark: listed apart in the source;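 for result: surface plasmon resonance with Fabs captured on anti-Fab surface, soluble monomeric CD33 as analyte at several concentrations, double-referenced 1:1 model fit, KD as koff/kon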
Method: as §1, §2

[6] = target: T5, cyno CD33 extracellular domain (Cynomolgus/Rhesus (cyno)); assay: SPR, Fab captured, 37C;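 note: surface plasmon resonance with Fabs captured on anti-Fab surface, soluble monomeric CD33 as analyte at several concentrations, double-referenced 1:1 model fit, KD as koff/kon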
T5 construct: soluble monomeric ECD; also called cyno CD33 ECD
Method: as §1, §2

V domain of human CD33 [7] = target: T3, V domain of human CD33; assay: SPR, Fab captured, 37C; remark: listed apart in the source
Method: as §1

[8] = target: T1, human CD33 extracellular domain; assay: SPR, Fab captured, 37C; remark: listed apart in the source
Method: as §1

[9] = target: T6, human CD33 expressed on cells (human, UniProt P20138 18-364); assay: flow cytometry on Molm-13 cells, fluorophore-conjugated anti-human IgG secondary antibody, MFI as fold over background (FOB)
T6 construct: endogenous CD33 of human AML cell lines and blood monocytes; also called cell-expressed CD33 (Molm-13, Mv4-11, monocytes)
Method: Binding of the TriNKET was detected using a fluorophore conjugated anti-human IgG secondary antibody. Cells were analyzed by flow cytometry, binding MFI to cell expressed CD33 was normalized to secondary antibody controls to obtain fold over background values.

Row | Binder | Kd [1] [nM] | koff [1] [s⁻¹] | kon [1] [M⁻¹ s⁻¹] | Kd [2] [nM] | koff [2] [s⁻¹] | Kd [3] [nM] | koff [3] [s⁻¹] | kon [3] [M⁻¹ s⁻¹] | Kd (V domain of human CD33 [4]) [nM] | koff (V domain of human CD33 [4]) [s⁻¹] | kon (V domain of human CD33 [4]) [M⁻¹ s⁻¹] | binding result (C domain of human CD33) | Kd [5] [nM] | koff [5] [s⁻¹] | kon [5] [M⁻¹ s⁻¹] | Kd (V domain of human CD33 [7]) [nM] | koff (V domain of human CD33 [7]) [s⁻¹] | kon (V domain of human CD33 [7]) [M⁻¹ s⁻¹] | Kd [8] [nM] | koff [8] [s⁻¹] | also measured
1 | ADI-10160 Fab (Fab, V domains shown, Fab fragment; also called Ab15) VH: EVQLVESGGGLVQPGGSLRLSCAASGFTFSSYWMSWVRQAPGKGLEWVANINQDGSEKYYVDSVKGRFTISRDNAKNSLYLQMNSLRAEDTAVYYCAREANYYGNVGDDYWGQGTLVTVSS VL: not shown | 42.2 | 0.0269 | 637000 | 42.2 | 0.0269 | 133 | 0.225 | 1.7e+06 | 206 | 0.327 | 1.59e+06 | no binding | 42.2 | 0.0269 | 637000 | 206 | 0.327 | 1.59e+06 | 42.2 | 0.0269 | binding result [6]: no binding (tested: 100 nM); kon [8]: 637000 M⁻¹ s⁻¹
2 | ADI-11825 Fab (Fab, V domains shown, Fab fragment; also called Ab25) VH: EVQLVESGGGLVQPGGSLRLSCAASGFTFGGYWMSWVRQAPGKGLEWVANINQDGSEEYYVDSVKGRFTISRDNAKNSLYLQMNSLRAEDTAVYYCAREANYYGNVGDDYWGQGTLVTVSS VL: DIQMTQSPSSLSASVGDRVTITCRASQSIYNYLNWYQQKPGKAPKLLIYAASNLHSGVPSRFSGSGSGTDFTLTISSLQPEDFATYYCQQAFHVPITFGGGTKVEIK | 1.78 | 0.0038 | 2.13e+06 | 1.78 | 0.0038 | 3.11 | 0.018 | 5.78e+06 | 3.95 | 0.0195 | 4.93e+06 | no binding | 1.78 | 0.0038 | 2.13e+06 | 3.95 | 0.0195 | 4.93e+06 | 1.78 | 0.0038 | binding result [6]: no binding (tested: 100 nM); kon [8]: 2.13e+06 M⁻¹ s⁻¹
3 | ADI-11828 Fab (Fab, V domains shown, Fab fragment; also called Ab27) VH: EVQLVESGGGLVQPGGSLRLSCAASGFTFSSYWMSWVRQAPGKGLEWVANINQDGSEVYYVDSVKGRFTISRDNAKNSLYLQMNSLRAEDTAVYYCARDVGPGIAYQGHFDYWGQGTLVTVSS VL: DIQMTQSPSSLSASVGDRVTITCRASQSIYYYLNWYQQKPGKAPKLLIYAASSRQSGVPSRFSGSGSGTDFTLTISSLQPEDFATYYCQQVYDTPLTFGGGTKVEIK | 2.67 | 0.00351 | 1.32e+06 | 2.67 | 0.00351 | 4.87 | 0.0189 | 3.59e+06 | 6.3 | 0.0213 | 3.37e+06 | no binding | 2.67 | 0.00351 | 1.32e+06 | 6.3 | 0.0213 | 3.37e+06 | 2.67 | 0.00351 | Kd [6]: 53.5 nM; koff [6]: 0.0548 s⁻¹; kon [6]: 1.03e+06 M⁻¹ s⁻¹; kon [8]: 1.32e+06 M⁻¹ s⁻¹
4 | A40.I07 (bispecific antibody) NKG2D-binding VH: QVQLQQWGAGLLKPSETLSLTCAVYGGSFSGYYWSWIRQPPGKGLEWIGEIDHSGSTNYNPSLKSRVTISVDTSKNQFSLKLSSVTAADTAVYYCARARGPWSFDPWGQGTLVTVSS NKG2D-binding VL: DIQMTQSPSTLSASVGDRVTITCRASQSIGSWLAWYQQKPGKAPKLLIYKASSLESGVPSRFSGSGSGTEFTLTISSLQPDDFATYYCQQYHSFYTFGGGTKVEIK CD33-binding VH: EVQLVESGGGLVQPGGSLRLSCAASGFTFGSYWMSWVRQAPGKGLEWVATIKQDGSEKSYVDSVKGRFTISRDNAKNSLYLQMNSLRAEDTAVYYCARPLNAGELDVWGQGTMVTVSS CD33-binding VL: DIQMTQSPSTLSASVGDRVTITCRASQSISSWLAWYQQKPGKAPKLLIYEASSLESGVPSRFSGSGSGTEFTLTISSLQPDDFATYYCQQSQSYPPITFGGGTKVEIK |  |  |  |  |  |  |  |  |  |  |  |  |  |  |  |  |  |  |  |  | binding result [9]: binds
5 | A40.I35 (bispecific antibody) NKG2D-binding VH: QVQLQQWGAGLLKPSETLSLTCAVYGGSFSGYYWSWIRQPPGKGLEWIGEIDHSGSTNYNPSLKSRVTISVDTSKNQFSLKLSSVTAADTAVYYCARARGPWSFDPWGQGTLVTVSS NKG2D-binding VL: DIQMTQSPSTLSASVGDRVTITCRASQSIGSWLAWYQQKPGKAPKLLIYKASSLESGVPSRFSGSGSGTEFTLTISSLQPDDFATYYCQQYHSFYTFGGGTKVEIK CD33-binding VH: QLQLQESGPGLVKPSETLSLTCTVSGGSISSTDYYWGWIRQPPGKGLEWIGSIGYSGTYYNPSLKSRVTISVDTSKNQFSLKLSSVTAADTAVYYCARETAHDVHGMDVWGQGTTVTVSS CD33-binding VL: EIVLTQSPATLSLSPGERATLSCRASHSVYSYLAWYQQKPGQAPRLLIYDASNRATGIPARFSGSGSGTDFTLTISSLEPEDFAVYYCQQYDNLPTFGGGTKVEIK |  |  |  |  |  |  |  |  |  |  |  |  |  |  |  |  |  |  |  |  | binding result [9]: binds
6 | F47.I07 (bispecific antibody) NKG2D-binding VH: QVQLQQWGAGLLKPSETLSLTCAVYGGSFSGYYWSWIRQPPGKGLEWIGEIDHSGSTNYNPSLKSRVTISVDTSKNQFSLKLSSVTAADTAVYYCARARGPWSFDPWGQGTLVTVSS NKG2D-binding VL: DIQMTQSPSTLSASVGDRVTITCRASQSISSWLAWYQQKPGKAPKLLIYKASSLESGVPSRFSGSGSGTEFTLTISSLQPDDFATYYCQQYDTFITFGGGTKVEIK CD33-binding VH: EVQLVESGGGLVQPGGSLRLSCAASGFTFGSYWMSWVRQAPGKGLEWVATIKQDGSEKSYVDSVKGRFTISRDNAKNSLYLQMNSLRAEDTAVYYCARPLNAGELDVWGQGTMVTVSS CD33-binding VL: DIQMTQSPSTLSASVGDRVTITCRASQSISSWLAWYQQKPGKAPKLLIYEASSLESGVPSRFSGSGSGTEFTLTISSLQPDDFATYYCQQSQSYPPITFGGGTKVEIK |  |  |  |  |  |  |  |  |  |  |  |  |  |  |  |  |  |  |  |  | binding result [9]: binds

Now from value to binder, other results behind:

Row | Kd [1] [nM] | koff [1] [s⁻¹] | kon [1] [M⁻¹ s⁻¹] | Kd [2] [nM] | koff [2] [s⁻¹] | Kd [3] [nM] | koff [3] [s⁻¹] | kon [3] [M⁻¹ s⁻¹] | Kd (V domain of human CD33 [4]) [nM] | koff (V domain of human CD33 [4]) [s⁻¹] | kon (V domain of human CD33 [4]) [M⁻¹ s⁻¹] | binding result (C domain of human CD33) | Kd [5] [nM] | koff [5] [s⁻¹] | kon [5] [M⁻¹ s⁻¹] | Kd (V domain of human CD33 [7]) [nM] | koff (V domain of human CD33 [7]) [s⁻¹] | kon (V domain of human CD33 [7]) [M⁻¹ s⁻¹] | Kd [8] [nM] | koff [8] [s⁻¹] | Binder | also measured
7 | 20.6 | 0.0118 | 574000 | 20.6 | 0.0118 | 85.6 | 0.196 | 2.29e+06 | 95.8 | 0.124 | 1.29e+06 | no binding | 20.6 | 0.0118 | 574000 | 95.8 | 0.124 | 1.29e+06 | 20.6 | 0.0118 | ADI-10161 Fab (Fab, V domains shown, Fab fragment; also called Ab16) VH: EVQLVESGGGLVQPGGSLRLSCAASGFTFSSYWMSWVRQAPGKGLEWVANINQDGSEKYYVDSVKGRFTISRDNAKNSLYLQMNSLRAEDTAVYYCAREGGDSWYHAFDIWGQGTMVTVSS VL: DIQMTQSPSSVSASVGDRVTITCRASQGISSWLAWYQQKPGKAPKLLIYAASNLQSGVPSRFSGSGSGTDFTLTISSLQPEDFATYYCQQKLSLPLTFGGGTKVEIK | binding result [6]: no binding (tested: 100 nM); kon [8]: 574000 M⁻¹ s⁻¹
8 | 18.6 | 0.0162 | 874000 | 18.6 | 0.0162 | 70.3 | 0.116 | 1.65e+06 | 44.6 | 0.41 | 9.19e+06 | no binding | 18.6 | 0.0162 | 874000 | 44.6 | 0.41 | 9.19e+06 | 18.6 | 0.0162 | ADI-11839 Fab (Fab, V domains shown, Fab fragment; also called Ab28) VH: QVQLVQSGAEVKKPGASVKVSCKASGYTFSNYYMHWVRQAPGQGLEWMGWINPFSGGTRYAQKFQGRVTMTRDTSTSTVYMELSSLRSEDTAVYYCARDVGSSAYYYMDVWGKGTTVTVSS VL: DIQMTQSPSSVSASVGDRVTITCEASKGISSWLAWYQQKPGKAPKLLIYAASDLQSGVPSRFSGSGSGTDFTLTISSLQPEDFATYYCQQAFLFPPTFGGGTKVEIK | binding result [6]: no binding (tested: 100 nM); kon [8]: 874000 M⁻¹ s⁻¹
9 | 31.5 | 0.0101 | 319000 | 31.5 | 0.0101 | 143 | 0.116 | 811000 | 286 | 0.37 | 1.29e+06 | no binding | 31.5 | 0.0101 | 319000 | 286 | 0.37 | 1.29e+06 | 31.5 | 0.0101 | ADI-10164 Fab (Fab, V domains shown, Fab fragment; also called Ab18) VH: QVQLQESGPGLVKPSETLSLTCAVSGYSISSGYYWGWIRQPPGKGLEWIGSIYHSGSTNYNPSLKSRVTISVDTSKNQFSLKLSSVTAADTAVYYCARLPPWFGFSYFDLWGRGTLVTVSS VL: EIVLTQSPATLSLSPGERATLSCRASQSVSSYLAWYQQKPGQAPRLLIYDASNRATGIPARFSGSGSGTDFTLTISSLEPEDFAVYYCQQVDNYPPTFGGGTKVEIK | binding result [6]: no binding (tested: 100 nM); kon [8]: 319000 M⁻¹ s⁻¹

— patent publication US20220380459A1 (DRAGONFLY THERAPEUTICS, published 2022)
